Patent US8173397B2, “Folded recombinant catalytic fragments of multidomain serine proteases, preparation and uses thereof” (TargetEx Kft., priority 2002, dated 2012)

Key:
C4 = C4 cleavage by MASP fragments; assay type: biochemical, human; settings: 37° C., pH 7.4; averages of 2 to 4 experiments, standard errors
Method: (§1) C2, C3, C3(NH3), C4 cleavage—Serial dilutions of MASP-1 and MASP-2 fragments ranging between concentrations of 1 μM and 10 pM were incubated at 37° C. in 20 mM HEPES, 140 mM NaCl, pH 7.4 with C2, C3, C3(NH3) or C4 at typical concentrations of 0.5-1 μM. The cleavage was followed by SDS-PAGE under reducing conditions. Desirable concentrations of the MASP fragments for further detailed kinetic analysis were chosen to be where half of the protein substrates were hydrolyzed during the first 20 minutes of incubation. The protein substrates C2, C3, C3(NH3) or C4 were then incubated with the selected concentrations of the MASP fragments at 37° C. in 20 mM HEPES, 140 mM NaCl, pH 7.4. Typically 11-13 samples were taken at varying time periods but always within 50 minutes from the beginning of the reaction. Cleavages rates were quantified by measuring the diminution of the cleaved chain visualized by Coomassie stained SDS-PAGs using a GEL DOC 1000 instrument and Molecular Analyst Software for densitometric calculations (Bio-Rad, Hercules, Calif., USA). The reactions were assumed to be of the Michaelis-Menten type. In the case of C3 and C3(NH3) cleavage a further reasonable assumption of KM>>[substrate] was made. The constants KM, kcat and KM/kcat were estimated by unbiased non-linear regression methods regressing the data on the following equations: t=([S0]−[S]+KMln([S0]/[S]))/(kcat[E0]) or in the case of C3 and C3(NH3) cleavage on [S]=[S0]exp(−t[E0]kcat/KM).

C2 = biological target: T1, C2 (Homo sapiens, UniProt P06681); assay: C2 cleavage by MASP fragments; assay type: biochemical; settings: 37° C., pH 7.4; averages of 2 to 4 experiments, standard errors
T1 construct: from tissue
T1 sequence (P06681 21-752): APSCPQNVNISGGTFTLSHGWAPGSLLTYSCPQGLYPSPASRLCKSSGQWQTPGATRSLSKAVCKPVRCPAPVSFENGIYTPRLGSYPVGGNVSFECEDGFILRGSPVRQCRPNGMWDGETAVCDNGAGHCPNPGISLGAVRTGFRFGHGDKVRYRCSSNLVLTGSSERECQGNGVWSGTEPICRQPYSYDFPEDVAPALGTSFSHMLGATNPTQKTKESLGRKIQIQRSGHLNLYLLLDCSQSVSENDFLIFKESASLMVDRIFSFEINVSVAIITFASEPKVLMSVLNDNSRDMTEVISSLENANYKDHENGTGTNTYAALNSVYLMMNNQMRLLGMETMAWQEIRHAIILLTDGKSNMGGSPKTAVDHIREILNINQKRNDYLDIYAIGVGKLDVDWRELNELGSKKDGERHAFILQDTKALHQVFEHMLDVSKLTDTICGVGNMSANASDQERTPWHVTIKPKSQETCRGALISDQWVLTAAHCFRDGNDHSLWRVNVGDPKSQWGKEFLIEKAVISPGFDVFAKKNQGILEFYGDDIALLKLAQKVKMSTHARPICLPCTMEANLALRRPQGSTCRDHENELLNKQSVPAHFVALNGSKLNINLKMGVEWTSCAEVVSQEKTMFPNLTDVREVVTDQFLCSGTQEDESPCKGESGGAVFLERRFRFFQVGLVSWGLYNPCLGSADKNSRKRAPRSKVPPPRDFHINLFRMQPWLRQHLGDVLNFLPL
Method: as §1

live C3 = biological target: T2, live C3 (Homo sapiens, UniProt P01024); assay: Cleavage of live C3 by MASP fragments, SDS-PAGE densitometry; assay type: biochemical; settings: from kcat/KM values
T2 construct: was isolated from fresh human serum; from tissue; host or cells: fresh human serum
T2 sequence (P01024 672-1663 limits assumed): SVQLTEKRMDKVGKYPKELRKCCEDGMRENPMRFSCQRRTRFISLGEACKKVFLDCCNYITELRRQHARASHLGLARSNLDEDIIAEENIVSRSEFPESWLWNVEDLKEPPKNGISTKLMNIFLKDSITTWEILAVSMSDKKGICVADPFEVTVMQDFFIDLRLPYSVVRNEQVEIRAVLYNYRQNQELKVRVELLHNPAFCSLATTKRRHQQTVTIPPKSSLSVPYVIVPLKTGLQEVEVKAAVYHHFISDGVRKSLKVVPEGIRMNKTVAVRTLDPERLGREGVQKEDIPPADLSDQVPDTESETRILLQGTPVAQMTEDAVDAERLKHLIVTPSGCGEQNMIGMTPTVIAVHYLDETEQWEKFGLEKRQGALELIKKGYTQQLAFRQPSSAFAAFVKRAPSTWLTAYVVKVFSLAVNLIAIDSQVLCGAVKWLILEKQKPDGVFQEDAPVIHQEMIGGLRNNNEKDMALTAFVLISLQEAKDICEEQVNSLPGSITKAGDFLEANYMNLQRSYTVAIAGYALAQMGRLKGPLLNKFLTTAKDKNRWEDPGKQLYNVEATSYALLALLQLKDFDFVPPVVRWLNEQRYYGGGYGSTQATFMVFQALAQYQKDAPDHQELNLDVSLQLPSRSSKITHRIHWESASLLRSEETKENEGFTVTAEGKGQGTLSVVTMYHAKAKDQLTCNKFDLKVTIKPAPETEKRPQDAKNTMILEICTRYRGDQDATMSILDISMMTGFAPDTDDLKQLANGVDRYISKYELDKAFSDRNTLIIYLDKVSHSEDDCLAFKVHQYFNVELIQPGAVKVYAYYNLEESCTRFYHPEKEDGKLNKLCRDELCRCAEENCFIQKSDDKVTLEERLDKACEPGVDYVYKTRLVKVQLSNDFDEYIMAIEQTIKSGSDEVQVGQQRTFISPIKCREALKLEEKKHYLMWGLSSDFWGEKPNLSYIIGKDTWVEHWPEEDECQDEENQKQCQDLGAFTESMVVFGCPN
T2 sequence (P01024 23-667 partner limits assumed): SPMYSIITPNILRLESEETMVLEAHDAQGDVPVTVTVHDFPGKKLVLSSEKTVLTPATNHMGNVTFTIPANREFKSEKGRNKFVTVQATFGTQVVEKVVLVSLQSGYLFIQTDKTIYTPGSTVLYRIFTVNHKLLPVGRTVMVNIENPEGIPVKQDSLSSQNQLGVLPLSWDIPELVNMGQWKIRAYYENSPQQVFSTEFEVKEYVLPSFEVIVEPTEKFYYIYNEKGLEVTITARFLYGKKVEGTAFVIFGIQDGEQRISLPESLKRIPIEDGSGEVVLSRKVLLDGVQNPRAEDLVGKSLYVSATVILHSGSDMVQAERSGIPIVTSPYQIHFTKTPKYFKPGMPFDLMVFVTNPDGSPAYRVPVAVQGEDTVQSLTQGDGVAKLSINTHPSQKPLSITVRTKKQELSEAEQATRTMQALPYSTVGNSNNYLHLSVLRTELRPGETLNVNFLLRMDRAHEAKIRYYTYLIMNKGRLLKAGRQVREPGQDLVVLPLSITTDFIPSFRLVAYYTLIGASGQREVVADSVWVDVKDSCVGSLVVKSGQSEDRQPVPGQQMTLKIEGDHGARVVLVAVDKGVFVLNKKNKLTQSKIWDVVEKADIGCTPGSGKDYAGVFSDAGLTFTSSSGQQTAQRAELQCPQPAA
Method: as §1, with “The constants KM, kcat and KM/kcat were estimated by unbiased non-linear regression methods regressing the data on the following equations: t=([S0]−[S]+KMln([S0]/[S]))/(kcat[E0]) or in the case of C3 and C3(NH3) cleavage on [S]=[S0]exp(−t[E0]kcat/KM).” left out

B1: MASP-1γB: E. coli-expressed, refolded human MASP-1 CCP1-CCP2-SP fragment, Gly298 to Asn699 with N-terminal Ala-Ser-Met-Thr tag (protein)
chain 1: ASMTGNECPELQPPVHGKIEPSQAKYFFKDQVLVSCDTGYKVLKDNVEMDTFQIECLKDGTWSNKIPTCKIVDCRAPGELEHGLITFSTRNNLTTYKSEIKYSCQEPYYKMLNNNTGIYTCSAQGVWMNKVLGRSLPTCLPVCGLPKFSRKLMAR
chain 2: IFNGRPAQKGTTPWIAMLSHLNGQPFCGGSLLGSSWIVTAAHCLHQSLDPEDPTLRDSDLLSPSDFKIILGKHWRLRSDENEQHLGVKHTTLHPQYDPNTFENDVALVELLESPVLNAFVMPICLPEGPQQEGAMVIVSGWGKQFLQRFPETLMEIEIPIVDHSTCQKAYAPLKKKVTRDMICAGEKEGGKDACAGDSGGPMVTLNRERGQWYLVGTVSWGDDCGKKDRYGVYSYIHHNKDWIQRVTGVRN
C4 kcat (C4): 0.002 ± 0.001 s⁻¹ | C2 kcat (C2): 0.10 ± 0.07 s⁻¹ | proteolytic action on 'live' C3 relative to 'dead' C3 (fold less) (live C3): about 20 fold
